The Km is the substrate concentration at which the rate is half of its maximum. The kcat is the maximal rate divided by the concentration of active sites. As a reminder, the kcat/Km is the second-order rate constant that governs catalysis at low substrate concentration.

Consider one protein from patent US20060292657A1, “Phex substrates and methods using same” (priority 2003, published 2006).

Test in all cases: Kinetic parameters for hydrolysis of internally quenched fluorogenic peptides by secPHEX
What all share (type): biochemical, human
Holding throughout (details): other: 37° C., 10 mM Bis-Tris buffer pH 5.5, 150 mM NaCl

Substrate in data set [1]: CC(C)C[C@H](NC(=O)[C@H](Cc1c[nH]cn1)NC(=O)[C@H](CC(=O)O)NC(=O)c1ccccc1N)C(=O)N[C@@H](CO)C(=O)N[C@@H](CC(=O)O)C(=O)N[C@H](C(=O)N[C@@H](CO)C(=O)N[C@H](C(=O)N[C@@H](CCC(N)=O)C(=O)NCCNc1ccc([N+](=O)[O-])cc1[N+](=O)[O-])[C@@H](C)O)[C@@H](C)O
In a few lines: (§1)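 Purified human recombinant secPHEX hydrolysing internally quenched fluorogenic peptides at 37° C in 10 mM Bis-Tris pH 5.5, 150 mM NaCl; fluorescence (ex 320, em 420 nm) followed continuously, <5% substrate hydrolysed, inner-filter corrected. Km and kcat by non-linear regression; kcat/Km under [S]<<Km where applicable.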

Substrate in data set [2]: CC[C@H](C)[C@H](NC(=O)[C@H](CC(=O)O)NC(=O)[C@H](CC(N)=O)NC(=O)[C@H](CO)NC(=O)CNC(=O)c1ccccc1N)C(=O)N[C@@H](CCSC)C(=O)NCC(=O)N[C@@H](CCC(N)=O)C(=O)NCCNc1ccc([N+](=O)[O-])cc1[N+](=O)[O-]
In a few lines: as §1

Substrate in data set [3]: Nc1ccccc1C(=O)NCC(=O)N[C@@H](Cc1ccccc1)C(=O)N[C@@H](CO)C(=O)N[C@@H](CC(=O)O)C(=O)N[C@@H](Cc1ccc(O)cc1)C(=O)N[C@@H](CCCCNc1ccc([N+](=O)[O-])cc1[N+](=O)[O-])C(=O)O
The method, boiled down: as §1

B1: human recombinant secPHEX (Homo sapiens) (protein)
chain: SLQAKQEYCLKPECIEAAAAILSKVNLSVDPCDNFFRFACDGWISNNPIPEDMPSYGVYPWLRHNVDLKLKELLEKSISRRRDTEAIQKAKILYSSCMNEKAIEKADAKPLLHILRHSPFRWPVLESNIGPEGVWSERKFSLLQTLATFRGQYSNSVFIRLYVSPDDKASNEHILKLDQATLSLAVREDYLDNSTEAKSYRDALYKFMVDTAVLLGANSSRAEHDMKSVLRLEIKIAEIMIPHENRTSEAMYNKMNISELSAMIPQFDWLGYIKKVIDTRLYPHLKDISPSENVVVRVPQYFKDLFRILGSERKKTIANYLVWRMVYSRIPNLSRRFQYRWLEFSRVIQGTTTLLPQWDKCVNFIESALPYVVGKMFVDVYFQEDKKEMMEELVEGVRWAFIDMLEKENEWMDAGTKRKAKEKARAVLAKVGYPEFIMNDTHVNEDLKAIKFSEADYFGNVLQTRKYLAQSDFFWLRKAVPKTEWFTNPTTVNAFYSASTNQIRFPAGELQKPFFWGTEYPRSLSYGAIGVIVGHEFTHGFDNNGRKYDKNGNLDPWWSTESEEKFKEKTKCMINQYSNYYWKKAGLNVKGKRTLGENIADNGGLREAFRAYRKWINDRRQGLEEPLLPGITFTNNQLFFLSYAHVRCNSYRPEAAREQVQIGAHSPPQFRVNGAISNFEEFQKAFNCPPNSTMNRGMDSCRLW
notes: pure soluble form of PHEX (secPHEX); made in house
Turning to B1, in data set [1], the Km worked out at 1.3 µM, the kcat amounted to 0.1 s⁻¹ and the catalytic efficiency (kcat/Km) is 77000 M⁻¹ s⁻¹. Moreover, in data set [2], the Km amounted to 13.0 µM, the kcat is 0.01 s⁻¹ and the kcat/Km came to 800 M⁻¹ s⁻¹. For the same protein, in data set [3], the Km worked out at 3.0 µM, the turnover number (kcat) was 0.5 s⁻¹ and the kcat/Km is 166700 M⁻¹ s⁻¹.
